Assay results from paper PMC5641120, “Small-molecule inhibitors of PD-1/PD-L1 immune checkpoint alleviate the PD-L1-induced exhaustion of T-cells” (Oncotarget, 2017).

System: PD-1/sPD-L1
Assay: PD-1/sPD-L1 effector assay (anti-CD3 activated ECs, luciferase)
Type: cell-based, human
Details: anti-CD3 with sPD-L1 (wt or mutein), 24 h, luciferase reporter
Description: To evaluate the potential of BMS compounds in abrogating the inhibitory effect of sPD-L1 on the activation of T cells, sPD-L1 was pre-incubated with tested compounds and presented to ECs together with the anti-CD3-activating antibody.
For the evaluation of the BMS impact on T cell inhibition by soluble PD-L1, the ECs were stimulated with the anti-CD3 antibody in the presence of the recombinant human sPD-L1. For this, the 96-well white flat bottom plates were coated overnight at 4°C with 5 μg/ml of the anti-CD3 antibody or the isotype control solution in PBS. […] Then, 15 μl of the solution was added to each well of the antibody-coated plate. ECs were centrifuged and diluted to 50 000 per ml, and 60 μl of the cell solution was added to each well. The final concentration of sPD-L1 was 10 μg/ml (0.6 μM). The final concentrations of the BMS compounds were: 0.12, 0.3, 1.2 and 3 μM, giving the following BMS:sPD-L1 molar ratios: 1:5, 1:2, 2:1 and 5:1. The cells were cultured for 24 h and the luciferase activity assay was performed using the Bio-Glo Luciferase Assay System (Promega) according to the manufacturer's instructions.

B1: sPD-L1: recombinant human soluble PD-L1 (residues 18–134, C-terminal His-tag) (protein)
chain: AFTVTVPKDLYVVEYGSNMTIECKFPVEKQLDLAALIVYWEMEDKNIIQFVHGEEDLKVQHSSYRQRARLLKDQLSLGNAALQITDVKLQDAGVYRCMISYGGADYKRITVKVNAPY
modifications: NTA-Atto 647 N fluorescent dye on the His-tag (flow cytometry only); uniform 15N labelling (NMR titration with compounds only); left off: His-tag, C-terminal, kept
**Q.** With B1 as the molecule, how does the “effect of soluble PD-L1 protein on anti-CD3 mediated activation of ECs” value read?
**A.** decreased reporter expression to about half
